In paper PMC11363321:

Test system: Deoxymab-3 (DX3), humanized 3E10 antinuclear IgG1 (humanized (3E10 CDRs from MRL/lpr mouse on human IgG1 framework))
Test: SPR
Details: 1:1 kinetic fit, SPR Biacore T200, CM5 chip with neutravidin, biotinylated ssDNA (0.025 uM) immobilized, DX3 in PBS pH 7.4, contact 120 s, dissociation 400 s, temperature not …

30-mer single-stranded DNA oligonucleotide
Kd (experiment 1, DX3 titrated from 500 nM): 0.113 µM | Kd (experiment 2 (replicate)): 0.112 µM
